In the supplement of paper PMC5998384:

What was measured:
HeLa Kyoto [1] = experiment: solubility in G1/S (NP-40 vs SDS abundance) (log2 ratio); higher = more soluble; details: cell cycle stage: G1/S
HeLa Kyoto [2] = experiment: melting temperature (median over replicates), in situ; higher = more thermally stable
HeLa Kyoto [3] = experiment: solubility change mitosis vs G1/S (difference of NP-40 vs SDS log2 ratios) (log2 ratio difference); higher = more soluble in mitosis
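Wherever melting temperature (median over replicates), in situ is given: HeLa Kyoto cells synchronized by double thymidine or nocodazole block, proteins quantified by TMT10plex mass spectrometry, three independent biological replicates.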
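Wherever solubility change mitosis vs G1/S (difference of NP-40 vs SDS log2 ratios) is given: synchronized HeLa Kyoto cells (double thymidine block for G1/S, nocodazole release for mitosis), protein amounts in NP-40 versus SDS lysates quantified by mass spectrometry, three biological replicates.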
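Wherever solubility in G1/S (NP-40 vs SDS abundance) is given: HeLa Kyoto cells arrested at G1/S by double thymidine block, proteins quantified by TMT10plex mass spectrometry in mild NP-40 versus SDS extracts, three biological replicates.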

Row | Sequence | solubility in G1/S (log2) (HeLa Kyoto [1]) | melting temperature (HeLa Kyoto [2]; cell cycle stage: mitosis) [°C] | solubility change mitosis (log2) (HeLa Kyoto [3]) | melting temperature (HeLa Kyoto [2]; cell cycle stage: G1/S) [°C]
1 | MNSVRAANRRPRRVSRPRPVQQQQQQPPQQPPPQPPQQQPPQQQPPPPPQQQQQQQPPPPPPPPPPLPQERNNVGERDDDVPADMVAEESGPGAQNSPYQLRRKTLLPKRTACPTKNSMEGASTSTTENFGHRAKRARVSGKSQDLSAAPAEQYLQEKLPDEVVLKIFSYLLEQDLCRAACVCKRFSELANDPILWKRLYMEVFEYTRPMMHPEPGKFYQINPEEYEHPNPWKESFQQLYKGAHVKPGFAEHFYSNPARYKGRENMLYYDTIEDALGGVQEAHFDGLIFVHSGIYTDEWIYIESPITMIGAAPGKVADKVIIENTRDSTFVFMEGSEDAYVGYMTIRFNPDDKSAQHHNAHHCLEITVNCSPIIDHCIIRSTCTVGSAVCVSGQGACPTIKHCNISDCENVGLYITDHAQGIYEDNEISNNALAGIWVKNHGNPIIRRNHIHHGRDVGVFTFDHGMGYFESCNIHRNRIAGFEVKAYANPTVVRCEIHHGQTGGIYVHEKGRGQFIENKIYANNFAGVWITSNSDPTIRGNSIFNGNQGGVYIFGDGRGLIEGNDIYGNALAGIQIRTNSCPIVRHNKIHDGQHGGIYVHEKGQGVIEENEVYSNTLAGVWVTTGSTPVLRRNRIHSGKQVGVYFYDNGHGVLEDNDIYNHMYSGVQIRTGSNPKIRRNKIWGGQNGGILVYNSGLGCIEDNEIFDNAMAGVWIKTDSNPTLRRNKIHDGRDGGICIFNGGRGLLEENDIFRNAQAGVLISTNSHPILRKNRIFDGFAAGIEITNHATATLEGNQIFNNRFGGLFLASGVNVTMKDNKIMNNQDAIEKAVSRGQCLYKISSYTSYPMHDFYRCHTCNTTDRNAICVNCIKKCHQGHDVEFIRHDRFFCDCGAGTLSNPCTLAGEPTHDTDTLYDSAPPIESNTLQHN [FBXO11] | -1.25 | 52.6 | 0.764 | –
2 | MPVVWPTLLDLSRDECKRILRKLELEAYAGVISALRAQGDLTKEKKDLLGELSKVLSISTERHRAEVRRAVNDERLTTIAHNMSGPNSSSEWSIEGRRLVPLMPRLVPQTAFTVTANAVANAAIQHNASLPVPAETGSKEVVCYSYTSTTSTPTSTPVPSGSIATVKSPRPASPASNVVVLPSGSTVYVKSVSCSDEDEKPRKRRRTNSSSSSPVVLKEVPKAVVPVSKTITVPVSGSPKMSNIMQSIANSLPPHMSPVKITFTKPSTQTTNTTTQKVIIVTTSPSSTFVPNILSKSHNYAAVTKLVPTSVIASTTQKPPVVITASQSSLVSNSSSGSSSSTPSPIPNTVAVTAVVSSTPSVVMSTVAQGVSTSAIKMASTRLPSPKSLVSAPTQILAQFPKQHQQSPKQQLYQVQQQTQQQVAQPSPVSHQQQPQQSPLPPGIKPTIQIKQESGVKIITQQVQPSKILPKPVTATLPTSSNSPIMVVSSNGAIMTTKLVTTPTGTQATYTRPTVSPSIGRMAATPGAATYVKTTSGSIITVVPKSLATLGGKIISSNIVSGTTTKITTIPMTSKPNVIVVQKTTGKGTTIQGLPGKNVVTTLLNAGGEKTIQTVPTGAKPAILTATRPITKMIVTQPKGIGSTVQPAAKIIPTKIVYGQQGKTQVLIKPKPVTFQATVVSEQTRQLVTETLQQASRVAEAGNSSIQEGKEEPQNYTDSSSSSTESSQSSQDSQPVVHVIASRRQDWSEHEIAMETSPTIIYQDVSSESQSATSTIKALLELQQTTVKEKLESKPRQPTIDLSQMAVPIQMTQEKRHSPESPSIAVVESELVAEYITTERTDEGTEVAFPLLVSHRSQPQQPSQPQRTLLQHVAQSQTATQTSVVVKSIPASSPGAITHIMQQALSSHTAFTKHSEELGTEEGEVEEMDTLDPQTGLFYRSALTQSQSAKQQKLSQPPLEQTQLQVKTLQCFQTKQKQTIHLQADQLQHKLPQMPQLSIRHQKLTPLQQEQAQPKPDVQHTQHPMVAKDRQLPTLMAQPPQTVVQVLAVKTTQQLPKLQQAPNQPKIYVQPQTPQSQMSLPASSEKQTASQVEQPIITQGSSVTKITFEGRQPPTVTKITGGSSVPKLTSPVTSISPIQASEKTAVSDILKMSLMEAQIDTNVEHMIVDPPKKALATSMLTGEAGSLPSTHMVVAGMANSTPQQQKCRESCSSPSTVGSSLTTRKIDPPAVPATGQFMRIQNVGQKKAEESPAEIIIQAIPQYAIPCHSSSNVVVEPSGLLELNNFTSQQLDDEETAMEQDIDSSTEDGTEPSPSQSSAERS [EMSY] | -0.0948 | 50.6 | 0.0269 | 44.6
3 | MQTSSSRSVHLSEWQKNYFAITSGICTGPKADAYRAQILRIQYAWANSEISQVCATKLFKKYAEKYSAIIDSDNVESGLNNYAENILTLAGSQQTDSDKWQSGLSINNVFKMSSVQKMMQAGKKFKDSLLEPALASVVIHKEATVFDLPKFSVCGSSQESDSLPNSAHDRDRTQDFPESNRLKLLQNAQPPMVTNTARTCPTFSAPVGESATAKFHVTPLFGNVKKENHSSAKENIGLNVFLSNQSCFPAACENPQRKSFYGSGTIDALSNPILNKACSKTEDNGPKEDSSLPTFKTAKEQLWVDQQKKYHQPQRASGSSYGGVKKSLGASRSRGILGKFVPPIPKQDGGEQNGGMQCKPYGAGPTEPAHPVDERLKNLEPKMIELIMNEIMDHGPPVNWEDIAGVEFAKATIKEIVVWPMLRPDIFTGLRGPPKGILLFGPPGTGKTLIGKCIASQSGATFFSISASSLTSKWVGEGEKMVRALFAVARCQQPAVIFIDEIDSLLSQRGDGEHESSRRIKTEFLVQLDGATTSSEDRILVVGATNRPQEIDEAARRRLVKRLYIPLPEASARKQIVINLMSKEQCCLSEEEIEQIVQQSDAFSGADMTQLCREASLGPIRSLQTADIATITPDQVRPIAYIDFENAFRTVRPSVSPKDLELYENWNKTFGCGK [FIGNL1] | -0.0197 | 48.6 | -0.219 | –
4 | MRRFKRKHLTAIDCQHLARSHLAVTQPFGQRWTNRDPNHGLYPKPRTKRGSRGQGSQRCIPEFFLAGKQPCTNDMAKSNSVGQDSCQDSEGDMIFPAESSCALPQEGSAGPGSPGSAPPSRKRSWSSEEESNQATGTSRWDGVSKKAPRHHLSVPCTRPREARQEAEDSTSRLSAESGETDQDAGDVGPDPIPDSYYGLLGTLPCQEALSHICSLPSEVLRHVFAFLPVEDLYWNLSLVCHLWREIISDPLFIPWKKLYHRYLMNEEQAVSKVDGILSNCGIEKESDLCVLNLIRYTATTKCSPSVDPERVLWSLRDHPLLPEAEACVRQHLPDLYAAAGGVNIWALVAAVVLLSSSVNDIQRLLFCLRRPSSTVTMPDVTETLYCIAVLLYAMREKGINISNRIHYNIFYCLYLQENSCTQATKVKEEPSVWPGKKTIQLTHEQQLILNHKMEPLQVVKIMAFAGTGKTSTLVKYAEKWSQSRFLYVTFNKSIAKQAERVFPSNVICKTFHSMAYGHIGRKYQSKKKLNLFKLTPFMVNSVLAEGKGGFIRAKLVCKTLENFFASADEELTIDHVPIWCKNSQGQRVMVEQSEKLNGVLEASRLWDNMRKLGECTEEAHQMTHDGYLKLWQLSKPSLASFDAIFVDEAQDCTPAIMNIVLSQPCGKIFVGDPHQQIYTFRGAVNALFTVPHTHVFYLTQSFRFGVEIAYVGATILDVCKRVRKKTLVGGNHQSGIRGDAKGQVALLSRTNANVFDEAVRVTEGEFPSRIHLIGGIKSFGLDRIIDIWILLQPEEERRKQNLVIKDKFIRRWVHKEGFSGFKRYVTAAEDKELEAKIAVVEKYNIRIPELVQRIEKCHIEDLDFAEYILGTVHKAKGLEFDTVHVLDDFVKVPCARHNLPQLPHFRVESFSEDEWNLLYVAVTRAKKRLIMTKSLENILTLAGEYFLQAELTSNVLKTGVVRCCVGQCNNAIPVDTVLTMKKLPITYSNRKENKGGYLCHSCAEQRIGPLAFLTASPEQVRAMERTVENIVLPRHEALLFLVF [FBXO18] | -0.21 | 52.4 | -0.0335 | 51.7
5 | MRRYLRVVVLCVACGFCSLLYAFSQLAVSLEEGTGGGGGKPQAAVASWLAGGGRGAVRGAGVAGPAAHPGVSDRCKDFSLCYWNPYWMLPSDVCGMNCFWEAAFRYSLKIQPVEKMHLAVVACGERLEETMTMLKSAIIFSIKPLQFHIFAEDQLHHSFKGRLDNWSFLQTFNYTLYPITFPSENAAEWKKLFKPCASQRLFLPLILKEVDSLLYVDTDILFLRPVDDIWSLLKKFNSTQIAAMAPEHEEPRIGWYNRFARHPYYGKTGVNSGVMLMNMTRMRRKYFKNDMTTVRLQWGDILMPLLKKYKLNITWGDQDLLNIVFFHNPESLFVFPCQWNYRPDHCIYGSNCQEAEEGGIFILHGNRGVYHDDKQPAFRAVYEALRNCSFEDDNIRSLLKPLELELQKTVHTYCGKIYKIFIKQLAKSVRDRYARSPKEK [GXYLT1] | 0.171 | – | 0.0753 | 53.9
6 | MSAGGSARKSTGRSSYYYRLLRRPRLQRQRSRSRSRTRPARESPQERPGSRRSLPGSLSEKSPSMEPSAATPFRVTGFLSRRLKGSIKRTKSQPKLDRNHSFRHILPGFRSAAAAAADNERSHLMPRLKESRSHESLLSPSSAVEALDLSMEEEVVIKPVHSSILGQDYCFEVTTSSGSKCFSCRSAAERDKWMENLRRAVHPNKDNSRRVEHILKLWVIEAKDLPAKKKYLCELCLDDVLYARTTGKLKTDNVFWGEHFEFHNLPPLRTVTVHLYRETDKKKKKERNSYLGLVSLPAASVAGRQFVEKWYPVVTPNPKGGKGPGPMIRIKARYQTITILPMEMYKEFAEHITNHYLGLCAALEPILSAKTKEEMASALVHILQSTGKVKDFLTDLMMSEVDRCGDNEHLIFRENTLATKAIEEYLKLVGQKYLQDALGEFIKALYESDENCEVDPSKCSAADLPEHQGNLKMCCELAFCKIINSYCVFPRELKEVFASWRQECSSRGRPDISERLISASLFLRFLCPAIMSPSLFNLLQEYPDDRTARTLTLIAKVTQNLANFAKFGSKEEYMSFMNQFLEHEWTNMQRFLLEISNPETLSNTAGFEGYIDLGRELSSLHSLLWEAVSQLEQSIVSKLGPLPRILRDVHTALSTPGSGQLPGTNDLASTPGSGSSSISAGLQKMVIENDLSGLIDFTRLPSPTPENKDLFFVTRSSGVQPSPARSSSYSEANEPDLQMANGGKSLSMVDLQDARTLDGEAGSPAGPDVLPTDGQAAAAQLVAGWPARATPVNLAGLATVRRAGQTPTTPGTSEGAPGRPQLLAPLSFQNPVYQMAAGLPLSPRGLGDSGSEGHSSLSSHSNSEELAAAAKLGSFSTAAEELARRPGELARRQMSLTEKGGQPTVPRQNSAGPQRRIDQPPPPPPPPPPAPRGRTPPNLLSTLQYPRPSSGTLASASPDWVGPSTRLRQQSSSSKGDSPELKPRAVHKQGPSPVSPNALDRTAAWLLTMNAQLLEDEGLGPDPPHRDRLRSKDELSQAEKDLAVLQDKLRISTKKLEEYETLFKCQEETTQKLVLEYQARLEEGEERLRRQQEDKDIQMKGIISRLMSVEEELKKDHAEMQAAVDSKQKIIDAQEKRIASLDAANARLMSALTQLKERYSMQARNGISPTNPTKLQITENGEFRNSSNC [DAB2IP] | 0.117 | 51 | 0.0598 | 49.5
7 | MSAHSMLCERIAIAKELIKRAESLSRSRKGGIEGGAKLCSKLKAELKFLQKVEAGKVAIKESHLQSTNLTHLRAIVESAENLEEVVSVLHVFGYTDTLGEKQTLVVDVVANGGHTWVKAIGRKAEALHNIWLGRGQYGDKSIIEQAEDFLQASHQQPVQYSNPHIIFAFYNSVSSPMAEKLKEMGISVRGDIVAVNALLDHPEELQPSESESDDEGPELLQVTRVDRENILASVAFPTEIKVDVCKRVNLDITTLITYVSALSYGGCHFIFKEKVLTEQAEQERKEQVLPQLEAFMKDKELFACESAVKDFQSILDTLGGPGERERATVLIKRINVVPDQPSERALRLVASSKINSRSLTIFGTGDTLKAITMTANSGFVRAANNQGVKFSVFIHQPRALTESKEALATPLPKDYTTDSEH [C7ORF25] | 0.0643 | 50 | 0.0164 | 50.1
